Assays:
[1] = system: h-mtTFA (mitochondrial transcription factor A) (Homo sapiens); experiment: inhibition
HMG1 = experiment: inhibition; conditions: cisplatin 1,2-d(GpG) intrastrand crosslink; inhibition of excision repair by HeLa CFE at 1 uM HMG1 (20% at 0.5 uM); 8 mM MgCl2, 2 mM ATP, 30 C
[2] = system: cellular SSRP in human (HeLa) and hamster (V79) cell extracts; conditions: cited from earlier work
[3] = system: cisplatin 1,3-d(GTG) intrastrand adduct (1,3-GTG), excision by human excinuclease; experiment: Exinuclease excision repair of the 1,3-intrastrand cisplatin lesion by HeLa cell-free extract, with or without HMG-box protein; type: biochemical; conditions: for percent inhibition of repair, 1,3-GTG adduct: 30 min, 30° C, average of two experiments
Description: (§1) Exinuclease substrates with defined cisplatin lesions Nucleic acid fragments (oligomers) bearing a 1,2-d(G^G) or a 1,3-d(GTG) cisplatin crosslink at a defined site were prepared essentially according to the method of Shi et al. (1987), 15 Nucleic Acids Res. 6843, by ligation of a mixture of a cisplatin-lesioned dodecamer with seven other oligonucleotides to produce 156 bp fragments. Prior to ligation, lesioned dodecamers were labeled with [γ-^32P]ATP such that the detectable radiolabel would be located at the 4th phosphodiester bond 5′ to the 1,3-intrastrand d(GTG) lesion, or the 5th phosphodiester bond 5′ to the 1,2-intrastrand d(G^G) lesion. Thus, the radiolabel would be included in the 27-29 nucleotide fragment spanning the cisplatin lesion that would be released by exinuclease. Full length (156 bp) exinuclease substrate oligomers were isolated on a 5% polyacrylamide/8 M urea denaturing gel and reannealed.
(§2) Exinuclease reaction. The excision reaction buffer contained 40 mM Hepes, pH 7.9, 80 mM KCl, 8 mM MgCl2, 2 mM ATP, 20 μM of each dNTP, 1 mM dithiothreitol, 0.3 mM EDTA, 6.8% (v/v) glycerol, and 200 μg/ml bovine serum albumin. The reaction mixture (50 μl) contained 100 μg of CFE (in cases of complementation, 50 μg of each of the XP CFE) and 30 pM DNA substrate (specific activity 7000 Ci/mmol), plus 250 ng pBR322 as carrier DNA. The excision reaction was carried out varying lengths of time at 30° C. Following proteinase K digestion, DNA exinuclease reaction products were extracted by phenol/chloroform and precipitated with ethanol. Equal amounts of DNA were loaded onto each lane.
(§3) The radiolabeled substrates bearing specific 1,2- and 1,3-intrastrand cisplatin lesions and the HeLa cell-free extract described above in Example 1 were used.
(§4) Gel Mobility Shift Assay. The 25 μl reaction mixtures contained 30 pM substrate and 0, 1, 2, 4 or 8 μM HMG1. Mixtures were incubated at 30° C. for 10 min. Samples (1.5 μl) of the mixtures were withdrawn and adjusted to 15% (v/v) glycerol, and electrophoretically resolved on a 5% native polyacrylamide gel. Results were visualized by autoradiography.
(§5) Exinuclease reaction in the presence of HMG1. Following withdrawal of the above samples for gel mobility shift analysis, 50 μg of HeLa CFE was added to each of the reaction mixtures and incubation was continued for 30 min at 30° C. as described in Example 1. Reactions were stopped and DNA reaction products were retrieved and analyzed as described in Example 2.
(§6) An exinuclease inhibition study was carried out generally as described in Example 3, using 0, 0.5 or 1.0 μM concentrations of HMG1 or h-mtTFA in parallel incubations.

[4] = system: yeast ixr-1 null mutant strain; conditions: Brown et al. (1993); cited from earlier work
[5] = system: cisplatin 1,2-d(G^G) intrastrand adduct (1,2-GG), excision by human excinuclease; experiment: Exinuclease excision repair of the 1,2-intrastrand cisplatin lesion by HeLa cell-free extract, with or without HMG-box protein; type: biochemical; conditions: for percent inhibition of repair, 1,2-GG adduct: 30 min, 30° C, average of two experiments
Description: as §1, §2, §3, §4, §5, §6

[6] = 90 min, HeLa CFE, no inhibitor, over 20 independent assays

156 bp duplex with site-specific cisplatin 1,2-d(GpG) intrastrand crosslink
activity ([1]; cisplatin 1,2-d(GpG) intrastrand crosslink, inhibition of excision repair at 0.5 uM h-mtTFA (100% at 1 uM)): 95 % inhibition
activity (HMG1): 40 % inhibition

[Cl-].[NH-]CC[N-]CC[NH-].[Pt+4] [chloro(diethylenetriamine)platinum(II)]
cellular SSRP binding to double stranded probe DNA bearing lesions produced by the compound [2]: did not bind

N.N.[Cl][Pt+2][Cl] [transplatin]
cellular SSRP binding to double stranded probe DNA bearing lesions produced by the compound [2]: did not bind

NC1CCCCC1N.[Cl][Pt][Cl] (stereo not drawn) [cis-dichloro(1,2-diaminocyclohexane)platinum(II)]
cellular SSRP binding to double stranded probe DNA bearing lesions produced by the compound [2]: bound

N.N.[Cl][Pt][Cl] [cisplatin, cis-diamminedichloroplatinum(II), reference compound]
cellular SSRP binding to double stranded probe DNA bearing lesions produced by the compound [2]: bound
range of excision of the 1,3-d(GTG) crosslink [3, 6]: 2.3-8%
sensitivity of ixr-1 null yeast to cisplatin killing relative to parent (wildtype Ixr-1) strain [4]: two-fold less sensitive
range of excision of the 1,2-d(G^G) crosslink [5, 6]: 1-8%

156 bp duplex with site-specific cisplatin 1,3-d(GTG) intrastrand crosslink
activity ([1]; cisplatin 1,3-d(GpTpG) intrastrand crosslink, inhibition of excision repair at 1 uM h-mtTFA (40% at 0.5 uM)): 75 % inhibition

NCCN.[Cl][Pt][Cl] [cis-dichloro(ethylenediamine)platinum(II)]
cellular SSRP binding to double stranded probe DNA bearing lesions produced by the compound [2]: bound

B1: HMG1: Recombinant HMG1 protein purified from an E. coli overproducing strain; HMG domain protein (protein, UniProt P09429 1-215, looked up)
High mobility group protein B1: MGKGDPKKPRGKMSSYAFFVQTCREEHKKKHPDASVNFSEFSKKCSERWKTMSAKEKGKFEDMAKADKARYEREMKTYIPPKGETKKKFKDPNAPKRPPSAFFLFCSEYRPKIKGEHPGLSIGDVAKKLGEMWNNTAADDKQPYEKKAAKLKEKYEKDIAAYRAKGKPDAAKKGVVKAEKSKKKKEEEEDEEDEEDEEEEEDEEDEDEEEDDDDE
percent inhibition of repair, 1,3-GTG adduct ([3]; 0.5 μM protein, HeLa CFE): 0%
percent inhibition of repair, 1,3-GTG adduct ([3]; 1 μM protein, HeLa CFE): 0%
effect on excision of the 1,3-crosslink ([3]; HMG1 concentrations up to about 4 μM, inhibited at higher concentrations, FIG. 5): modestly stimulated
percent inhibition of repair, 1,2-GG adduct ([5]; 1 μM protein, HeLa CFE): 40%
effect on excision of the cisplatin 1,2-intrastrand crosslink ([5]; escalating concentrations of purified HMG1 (0-8 μM), FIG. 5): monotonically inhibited

B2: h-mtTFA: human mitochondrial transcription factor A, an HMG domain protein (protein, UniProt Q00059 43-246, looked up)
Transcription factor A, …: SSVLASCPKKPVSSYLRFSKEQLPIFKAQNPDAKTTELIRRIAQRWRELPDSKKKIYQDAYRAEWQVYKEEISRFKEQLTPSQIMSLEKEIMDKHLKRKAMTKKKELTLLGKPKRPRSAYNVYVAERFQEAKGDSPQEKLKTVKENWKNLSDSEKELYIQHAKEDETRYHNEMKSWEEQMIEVGRKDLLRRTIKKQRKYGAEEC
percent inhibition of repair, 1,3-GTG adduct ([3]; 0.5 μM protein, HeLa CFE): 40%
percent inhibition of repair, 1,3-GTG adduct ([3]; 1 μM protein, HeLa CFE): 75%
percent inhibition of repair, 1,2-GG adduct ([5]; 0.5 μM protein, HeLa CFE): 95%
percent inhibition of repair, 1,2-GG adduct ([5]; 1 μM protein, HeLa CFE): 100%

— US6475791B1, “Uses for DNA structure-specific recognition protein” (Massachusetts Institute of Technology, priority 1988, dated 2002)
